The record followed here is PMC4548480, “Structures of the Ultra-High-Affinity Protein–Protein Complexes of Pyocins S2 and AP41 and Their Cognate Immunity Proteins from Pseudomonas aeruginosa” (Journal of Molecular Biology, 2015).

In this assay the target is T1, pyocin S2 DNase domain (Pseudomonas aeruginosa, UniProt Q06584 556-688).
T1 construct: pyocin S2, Pseudomonas aeruginosa, residues 556-688 found in the crystal after crystallisation of the intact PyoS2-ImS2 complex with chymotrypsin; The fragment of PyoS2 in the crystal was unknown to the authors; The limits 556-688 are those found in the solved structure; also called PyoS2 DNase; PyoS2; source: crystallised in the presence of chymotrypsin
T1 sequence: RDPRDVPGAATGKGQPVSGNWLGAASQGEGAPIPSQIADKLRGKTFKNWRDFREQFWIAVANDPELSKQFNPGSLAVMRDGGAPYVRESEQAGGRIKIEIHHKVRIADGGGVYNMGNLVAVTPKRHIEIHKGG
In words: crystal structure; intact PyoS2-ImS2 complex crystallised with chymotrypsin (1:100); 0.2 M sodium bromide, 20% (w/v) PEG 3350, 0.1 M Bis-tris propane pH 6.5; 1.8 Å; four copies of the complex in the asymmetric unit. Particulars: both partners purified.

B1: pyocin S2 immunity protein ImS2 (natural protein)
chain: MKSKISEYTEKEFLEFVKDIYTNNKKKFPTEESHIQAVLEFKKLTEHPSGSDLLYYPNENREDSPAGVVKEVKEWRASKGLPGFKAG
notes: immunity protein of pyocin S2 (ImS2), Pseudomonas aeruginosa, full length; the entirety of the immunity protein was present in the crystal
For B1, the binding result was “binds”.
